Article PMC4409870

Molecular target: GST-tagged βI spectrin N-terminal fragment, residues 1 to 301 (UniProt P11277)
Assay: pull-down

UniProt P11277, sequence (P11277 1-301): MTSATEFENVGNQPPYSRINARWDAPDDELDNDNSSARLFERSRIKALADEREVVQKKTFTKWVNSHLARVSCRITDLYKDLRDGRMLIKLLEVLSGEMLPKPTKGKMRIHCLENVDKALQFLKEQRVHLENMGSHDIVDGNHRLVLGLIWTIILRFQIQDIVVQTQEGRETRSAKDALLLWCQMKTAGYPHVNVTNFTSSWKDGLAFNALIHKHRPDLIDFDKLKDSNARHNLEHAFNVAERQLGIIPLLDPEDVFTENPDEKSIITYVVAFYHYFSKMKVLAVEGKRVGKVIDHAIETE

reduction of binding against the unphosphorylated protein [%]	Substance
30	His-tagged 4.1R-S312A, phosphorylated in vitro by the catalytic subunit of PKC (natural protein)
30	His-tagged 4.1R-S331A, phosphorylated in vitro by the catalytic subunit of PKC (natural protein)
